Assay [1] deals with human IL-12Rβ2 expressed on cells (human) (UniProt Q99665).
A further assay deals with CD20 (human) (UniProt P11836).
For assay [2], the target named is T1, biotinylated recombinant mouse IL-12Rβ2 (mouse, UniProt P97378 24-637, random biotinylated).
T1 construct: Recombinant protein produced in-house, biotinylated; also called mIL-12RB2; mouse IL-12RB2
T1 sequence: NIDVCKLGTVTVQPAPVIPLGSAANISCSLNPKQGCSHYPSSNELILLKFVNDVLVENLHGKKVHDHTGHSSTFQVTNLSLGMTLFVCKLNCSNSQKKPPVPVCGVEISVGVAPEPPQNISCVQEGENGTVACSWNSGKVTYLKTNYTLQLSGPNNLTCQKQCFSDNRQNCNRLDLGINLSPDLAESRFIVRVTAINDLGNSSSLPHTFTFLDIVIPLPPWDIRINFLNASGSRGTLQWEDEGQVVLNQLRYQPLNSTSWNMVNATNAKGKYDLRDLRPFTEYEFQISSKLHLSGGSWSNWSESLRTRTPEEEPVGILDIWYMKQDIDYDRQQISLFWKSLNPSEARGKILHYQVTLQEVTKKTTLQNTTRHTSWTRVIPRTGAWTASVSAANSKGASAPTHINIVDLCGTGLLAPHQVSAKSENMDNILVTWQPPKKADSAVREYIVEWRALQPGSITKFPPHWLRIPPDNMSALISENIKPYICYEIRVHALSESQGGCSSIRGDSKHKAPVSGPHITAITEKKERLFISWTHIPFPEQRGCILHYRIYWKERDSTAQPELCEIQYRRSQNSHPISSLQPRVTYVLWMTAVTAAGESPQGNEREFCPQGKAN
The assay is described as follows: ELISA, periplasmic extract on biotinylated mIL-12Rβ2, signal over control wells.

Assay [3] has as its target T2, biotinylated recombinant human IL-12Rβ2 (human, UniProt Q99665 24-622, random biotinylated).
T2 construct: Recombinant protein produced in-house, biotinylated; also called hIL-12RB2; human IL-12RB2
T2 sequence: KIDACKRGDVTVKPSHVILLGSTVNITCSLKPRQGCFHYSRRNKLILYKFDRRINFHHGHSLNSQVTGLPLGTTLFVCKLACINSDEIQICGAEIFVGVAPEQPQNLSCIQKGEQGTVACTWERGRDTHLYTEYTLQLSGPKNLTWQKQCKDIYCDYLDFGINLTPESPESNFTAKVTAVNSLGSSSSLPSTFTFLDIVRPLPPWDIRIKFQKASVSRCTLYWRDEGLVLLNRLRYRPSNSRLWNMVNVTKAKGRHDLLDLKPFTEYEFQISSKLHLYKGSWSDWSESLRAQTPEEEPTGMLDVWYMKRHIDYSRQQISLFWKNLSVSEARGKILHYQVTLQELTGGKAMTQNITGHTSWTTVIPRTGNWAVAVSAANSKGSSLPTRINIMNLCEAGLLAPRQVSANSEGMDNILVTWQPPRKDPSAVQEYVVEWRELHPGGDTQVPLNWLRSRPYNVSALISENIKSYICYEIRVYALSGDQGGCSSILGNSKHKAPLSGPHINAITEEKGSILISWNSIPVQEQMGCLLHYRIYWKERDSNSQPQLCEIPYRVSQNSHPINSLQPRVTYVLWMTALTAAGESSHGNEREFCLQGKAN
The assay is described as follows: BLI (Octet), periplasmic extract on biotinylated hIL-12Rβ2 on streptavidin tips.

Assay [4] deals with T2, biotinylated recombinant human IL-12Rβ2. The assay is described as follows: ELISA, periplasmic extract on biotinylated hIL-12Rβ2, signal over control wells.
Assay [5] has as its target T1, biotinylated recombinant mouse IL-12Rβ2. The assay is described as follows: BLI (Octet), periplasmic extract on biotinylated mIL-12Rβ2 on streptavidin tips, 1:1 model.
For assay [6], the target named is T2, biotinylated recombinant human IL-12Rβ2. Nature of the assay: BLI (Octet), periplasmic extract on biotinylated hIL-12Rβ2 on streptavidin tips, 1:1 model.
Assay [7] addresses T1, biotinylated recombinant mouse IL-12Rβ2. Nature of the assay: BLI (Octet), periplasmic extract on biotinylated mIL-12Rβ2 on streptavidin tips.

Substitutions are numbered along the chain they refer to.

Consider 14 molecules from patent publication US20260209362A1 (VIB VZW, published 2026).

Chain of CD20 (human) (P11836 whole entry): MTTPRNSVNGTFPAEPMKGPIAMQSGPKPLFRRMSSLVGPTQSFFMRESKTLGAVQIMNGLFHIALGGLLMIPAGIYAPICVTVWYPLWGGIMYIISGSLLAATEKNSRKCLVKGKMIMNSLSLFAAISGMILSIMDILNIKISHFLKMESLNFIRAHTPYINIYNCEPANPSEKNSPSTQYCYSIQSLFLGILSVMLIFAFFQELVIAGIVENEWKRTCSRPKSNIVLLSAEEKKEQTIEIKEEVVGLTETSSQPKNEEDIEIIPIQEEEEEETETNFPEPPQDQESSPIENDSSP

In assay [1], IgG1 (antibody) yielded a % Specific Cell Lysis at 0.00125 ug/mL of 47.5%, a % Specific Cell Lysis at 0.025 ug/mL of 50.4%, a % Specific Cell Lysis at 0.5 ug/mL of 48.7% and a % Specific Cell Lysis at 10 ug/mL of 44.6%.

On to Rituximab (antibody), for which, in the assay with CD20 (human), the % Specific Cell Lysis at 0.00125 ug/mL came to 52.4%, the % Specific Cell Lysis at 0.025 ug/mL was determined as 64.7%, the % Specific Cell Lysis at 0.5 ug/mL is 75.6% and the % Specific Cell Lysis at 10 ug/mL was found to be 77.5%.

B1: anti-IL-12Rβ2 VHH clone 21053 (VHH, not shown: small tags and cut ends)
VHH: QVQLQESGGGLVQAGGSLRLSCAASGRTFSNYAMAWFRQAPGTEREFVAGLSGSGGDTEFYDDSVKGRFAISRDSAKNTVWLQMNSLKPEDTAVYYCAAATHVVVHYGLVRRRGTYDYWGQGTQVTVSS
notes: tested as periplasmic extract; also called 3CRHM14
Take B1: the “ELISA binding mIL-12RB2/control” value in assay [2] was found to be 25.1 ratio. Also, the Response was determined as 1.19 in assay [3] and 0.957 in assay [7]. Also, the “ELISA binding hIL-12RB2/control” value in assay [4] was 3.11 ratio. Moreover, the koff in assay [5] worked out at 0.00483 s⁻¹; in assay [6] it was 0.00532 s⁻¹.

B2: anti-IL-12Rβ2 VHH clone 21064 (VHH, not shown: small tags and cut ends)
VHH: B1 VHH with A14P, E59A, D63N, K66M, A70T, V80M, M84I, S86N, H106S
notes: tested as periplasmic extract; also called 3CRHM200
B2: the “ELISA binding mIL-12RB2/control” value in assay [2] came to 5.37 ratio. The Response in assay [3] stood at 1.38; in assay [7] it was 1.01. Besides, the “ELISA binding hIL-12RB2/control” value in assay [4] worked out at 3.58 ratio. Also, the results for the koff in assay [5] and in assay [6] were 0.00546 s⁻¹ and 0.00571 s⁻¹, respectively.

B3: anti-IL-12Rβ2 VHH clone 21057 (VHH, not shown: small tags and cut ends)
VHH: B1 VHH with E59A, D63N, K66M, A70T, V80M, M84I, S86N, H106N
notes: tested as periplasmic extract; also called 3CRHM35
Take B3: in assay [2], the “ELISA binding mIL-12RB2/control” value stood at 35.5 ratio. Also, the Response stood at 1.36 in assay [3] and 1.04 in assay [7]. The “ELISA binding hIL-12RB2/control” value in assay [4] was 4.84 ratio. Also, the koff in assay [5] came to 0.00535 s⁻¹; in assay [6] it was 0.00576 s⁻¹.

B4: anti-IL-12Rβ2 VHH clone 21054 (VHH, not shown: small tags and cut ends)
VHH: B1 VHH with A14D, E59A, D63N, K66M, A70T, V80M, M84I, S86N, H106S, R112K
notes: tested as periplasmic extract; also called 3CRHM18
As for B4, the “ELISA binding mIL-12RB2/control” value in assay [2] was 45 ratio. The results for the Response in assay [3] and in assay [7] were 1.14 and 0.699, respectively. In assay [4], the “ELISA binding hIL-12RB2/control” value is 3.61 ratio. The results for the koff in assay [5] and in assay [6] were 0.00618 s⁻¹ and 0.00548 s⁻¹, respectively.

B5: anti-IL-12Rβ2 VHH clone 21060 (VHH, not shown: small tags and cut ends)
VHH: QVQLQESGGGLVQAGGSLSLSCAASGSAFRLNFMGWYRQAPGKQRELVAAINSGGTEIYHDSVKGRFTISRDNADSTVWLQMNSLKPDDTAVYYCAADRGISWSKLAGGMDYWGKGTQVTVSS
notes: tested as periplasmic extract; also called 3CRHM73
Consider B5, for which the “ELISA binding mIL-12RB2/control” value in assay [2] was 26.3 ratio. Moreover, the Response in assay [3] amounted to 1.45; in assay [7], 0.944. Besides, in assay [4], the “ELISA binding hIL-12RB2/control” value amounted to 6.9 ratio. Besides, the koff in assay [5] and in assay [6] was 0.00605 s⁻¹ throughout.

B6: anti-IL-12Rβ2 VHH clone 21052 (VHH, not shown: small tags and cut ends)
VHH: QVQLQESGGGSVQAGGSLRLSCAVSGRTVSDYAMGWFRQAPGKEREFVAAMSSSETTVYPNSVKGRITISRDNAKNAVYLQMNALKPEDTAVYYCSMGPIVTFQGLARQNEYHYWGQGTQVTVSS
notes: tested as periplasmic extract; also called 3CRHM12
For B6, in assay [2], the “ELISA binding mIL-12RB2/control” value came out at 38.3 ratio. Further, the Response in assay [3] is 1.32; in assay [7], 0.837. Besides, the “ELISA binding hIL-12RB2/control” value in assay [4] came out at 7.28 ratio. Besides, the koff is 0.00599 s⁻¹ in assay [5] and 0.00547 s⁻¹ in assay [6].

B7: anti-IL-12Rβ2 VHH clone 21051 (VHH, not shown: small tags and cut ends)
VHH: B6 VHH with V63M, M82L, V101A
notes: tested as periplasmic extract; also called 3CAHM40
As for B7, in assay [2], the “ELISA binding mIL-12RB2/control” value came out at 11.9 ratio. In addition, the Response in assay [3] is 1.32; in assay [7], 0.809. In addition, in assay [4], the “ELISA binding hIL-12RB2/control” value stood at 3.73 ratio. Besides, the koff worked out at 0.00644 s⁻¹ in assay [5] and 0.00578 s⁻¹ in assay [6].

B8: anti-IL-12Rβ2 VHH clone 21063 (VHH, not shown: small tags and cut ends)
VHH: B6 VHH with T28P, M51L, S53A, E55D, Y79D, S96A, V101G
notes: tested as periplasmic extract; also called 3CRHM133
B8: the “ELISA binding mIL-12RB2/control” value in assay [2] was found to be 3.92 ratio. The Response in assay [3] is 1.13; in assay [7], 0.97. Also, in assay [4], the “ELISA binding hIL-12RB2/control” value came to 3.46 ratio. The results for the koff in assay [5] and in assay [6] were 0.00667 s⁻¹ and 0.00389 s⁻¹, respectively.

B9: anti-IL-12Rβ2 VHH clone 21065 (VHH, not shown: small tags and cut ends)
VHH: B6 VHH with A49V, P60T, V101T
notes: tested as periplasmic extract; also called 3CRHM240
For B9, the “ELISA binding mIL-12RB2/control” value in assay [2] worked out at 5.72 ratio. The Response in assay [3] was 1.5; in assay [7] it was 1.05. Moreover, the “ELISA binding hIL-12RB2/control” value in assay [4] is 3.78 ratio. The koff in assay [5] was 0.00483 s⁻¹; in assay [6], 0.00457 s⁻¹.

B10: anti-IL-12Rβ2 VHH clone 21062 (VHH, not shown: small tags and cut ends)
VHH: QVQLQESGGGLVQPGGSLRLSCAASGISSSRLHVGWFRQSPGKEREFVAAISLSGGTQAYTDSVKGRFTISGDNVKNTAYLQMNSLRPEDTAVYYCAARERFIWTWSDLTYDYWGQGTQVTVSS
notes: tested as periplasmic extract; also called 3CRHM99
In the case of B10, in assay [2], the “ELISA binding mIL-12RB2/control” value came out at 5.24 ratio. In addition, the Response in assay [3] amounted to 1.45; in assay [7] it was 0.812. For the same molecule, the “ELISA binding hIL-12RB2/control” value in assay [4] was determined as 4.24 ratio. In addition, the koff in assay [5] is 0.00671 s⁻¹; in assay [6] it was 0.00634 s⁻¹.

B11: anti-IL-12Rβ2 VHH clone 21061 (VHH, not shown: small tags and cut ends)
VHH: QVQLQESGGGLVQPGGSLRLSCAASRRTFSKHAMAWFRQAPGKEREFVAVVRWSGIITYYADSVKGRFTISRDDAKNTVYLQMDSLKPEDTAVYYCAAGDYRGNGYYVPGMYDYWGQGTQVTVSS
notes: tested as periplasmic extract; also called 3CRHM85
Turning to B11, in assay [2], the “ELISA binding mIL-12RB2/control” value amounted to 8 ratio. The figures for the Response in assay [3] and in assay [7] were 1.32 and 0.816, respectively. In addition, in assay [4], the “ELISA binding hIL-12RB2/control” value turned out to be 3.52 ratio. The values for the koff in assay [5] and in assay [6] were 0.00474 s⁻¹ and 0.00343 s⁻¹, respectively.

B12: anti-IL-12Rβ2 VHH clone 21055 (VHH, not shown: small tags and cut ends)
VHH: QVQLQESGGGLVQAGGSLRLSCAASGRTFSKSTMGWFRQTPGKEREFVAAITWTDTEVYANSVKDRFTISRDNAKNTFYLQMHSLKLEDTAVYYCAGDRYGSSRDSVFSSPTNYPYWGQGTQVTVSS
notes: tested as periplasmic extract; also called 3CRHM20
Take B12: the “ELISA binding mIL-12RB2/control” value in assay [2] is 20.2 ratio. Moreover, the results for the Response in assay [3] and in assay [7] were 1.18 and 0.586, respectively. For the same molecule, the “ELISA binding hIL-12RB2/control” value in assay [4] was found to be 8.23 ratio. Further, the results for the koff in assay [5] and in assay [6] were 0.0059 s⁻¹ and 0.00486 s⁻¹, respectively.
